According to patent publication US20230263864A1, “THERAPEUTIC MICROBES” (Danmarks Tekniske Universitet, priority 2020, published 2023):

How the values were obtained:
[1] = Oral gavage of engineered E. coli Nissle in mice, metabolites and body weight; type: in vivo, mice (NMRI); details: carbidopa 10 mg/kg IP every 24 h
Method: Female mice (NMRI, supplied by Taconic Biosciences, 6 weeks of age) were group-housed on a 12-h light:dark cycle at constant temperature with ad libitum access to food and water in a Specific Pathogen Free (SPF) facility. Upon delivery, mice were given 5 days to adjust to new location. Cohort size was 8 animals, and 4 different cohorts were tested, see below. All animals received Streptomycin (5 g/L) in the drinking water to ensure colonization, 3 days before being gavaged and throughout the experiment. A single oral gavage of 10^8 cells was administered of either L-DOPA-producing (called ‘EcN_DOPA’) or a control E. coli Nissle (‘EcN_CTRL’) strain without expression of the tyrosine hydroxylase gene. Samples were taken for the following 7 days, after which animals were euthanized and final blood samples and gut content samples were collected. […] Fresh fecal samples were collected daily for 7 days to quantify colonization and metabolite levels. […]
In vivo sample analysis: Plasma, tissue samples, gut content and fecal samples were analyzed for DOPA-derived and related serotonin metabolites using LC-MS. […] Gut and brain tissue was also frozen for real-time quantitative PCR (RT-qPCR) and metabolite analysis. Quantification of metabolites from in vivo samples was performed as described above (‘LC-MS analysis’).

E. faecalis = experiment: Bacteriocin assay (halos on BHI agar); type: cell-based; details: overnight 37 C, FIG. 6C
Method: Three colonies of each E. coli Nissle strain were inoculated in 5 ml of BHI broth and grown overnight at 37° C. in a shaking incubator. The following day, 1 ml of the culture was washed with PBS buffer once and 10 μl were used to spot the strains on top of a BHI agar plate. After drying, top BHI agar was mixed with 500 μl of previously grown E. faecalis, and was placed on top of the BHI agar containing the dried spots of the E. coli strains. Plates were dried for 10 minutes and then incubated at 37° C. overnight.

Molecule	Plasma serotonin levels ([1]; EcN_DOPA p=0.08)	Serotonin (5-HT) concentrations in urine ([1]; single oral gavage 10^8 cells, EcN_DOPA vs control strain p=0.06)	inhibition of E. faecalis around EcN spots (E. faecalis)
C[C@@](Cc1ccc(O)c(O)c1)(NN)C(=O)O [carbidopa]	reduced	decreased below detection level	
ubericin A: bacteriocin (SEQ ID NO. 29) co-expressed by L-DOPA producing E. coli Nissle (protein, Ubericin A) MKKTAIAIAVALAGFATVAQAKTVNYGNGLYCNQKKCWVNWSETATTIVNNSIMNGLTGGNAGWHSGGRA			halos of inhibition
Hiracin JM79: bacteriocin (SEQ ID NO. 27) co-expressed by L-DOPA producing E. coli Nissle (protein, Hiracin JM79) MKKTAIAIAVALAGFATVAQAATYYGNGLYCNKEKCWVDWNQAKGEIGKIIVNGWVNHGPWAPRR			halos of inhibition
Enterocin A: bacteriocin (SEQ ID NO. 31) co-expressed by L-DOPA producing E. coli Nissle, pMUT-DOPA_5-EntA (protein, Enterocin A) MKKTAIAIAVALAGFATVAQATTHSGKYYGNGVYCTKNKCTVDWAKATTCIAGMSIGGFLGGAIPGKC			halos of inhibition
